Molecular target: huCD5-BTN (human) (UniProt P06127)
Test: BLI in tandem, huCD5-BTN saturated with UCHT2 first; competitor UCHT2

Sequence of huCD5-BTN (human) (P06127 25-372 limits assumed): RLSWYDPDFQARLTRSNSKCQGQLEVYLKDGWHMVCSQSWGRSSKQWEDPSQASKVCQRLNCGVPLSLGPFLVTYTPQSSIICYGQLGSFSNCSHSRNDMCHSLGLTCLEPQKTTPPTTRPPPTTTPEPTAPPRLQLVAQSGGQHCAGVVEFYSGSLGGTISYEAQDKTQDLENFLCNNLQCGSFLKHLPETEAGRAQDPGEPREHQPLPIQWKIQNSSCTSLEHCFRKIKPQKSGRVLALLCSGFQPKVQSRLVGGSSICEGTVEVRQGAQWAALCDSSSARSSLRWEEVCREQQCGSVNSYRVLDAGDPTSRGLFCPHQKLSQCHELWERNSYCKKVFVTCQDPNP

Work on UCHT2 (antibody) yielded a response (Response Units) of 0.

From patent US20260159603A1
